Measured values taken from publication PMC3295763 (PLoS ONE, 2012).

Molecular target: S-layer protein EA1 (Bacillus anthracis Sterne, UniProt P94217)
Experiment: SPR; […] (5 µg/ml in 10 mM sodium acetate pH 4.0); […], dissociation 10 min; […]
Settings: both partners purified

B1: sdAb B12 (VHH)
VHH: DVQLQASGGGLAQPGGSLRLSCVASGSVSRLSRMGWYRQAPGKQRELVAYIWHDGDNSYMDSVKGRFTISRDNARDTAYLQMNSLKPEDTAVYYCNYYRVGSGDSWGQGIQVIVSS
notes: source: E. coli Rosetta, periplasmic (pECAN45), purified (IMAC, Superdex 75)
Binder B1 has a Kd of 6.18 nM, a koff of 0.0015 s⁻¹ and a kon of 242000 M⁻¹ s⁻¹.

B2: sdAb G10 (VHH)
VHH: DVQLQASGGGLVQPGGSLKLSCVASGSTFSPDMMRWYRQAPGKQRDLVAWISTSGFTMYADSVKGRFTISRDNAKNTVYLQMNSLKPEDAAVYYCNANRFSGPDYWGQGMQVSVSS
notes: as for B1
For B2, the Kd was 2.04 nM, the koff was 0.000166 s⁻¹ and the kon was 81100 M⁻¹ s⁻¹.

B3: sdAb B2 (VHH)
VHH: EVQLQASGGGLVQAGGSLRLSCAASGHINIHYAMGWFRRAPGKEREFVAAVTWSGASTYYADSVKGRFTISRDNGGNTMFLQLDSLKPEDTATYYCAAQGALGRLTSASGYDYWGQGTQVTVSS
notes: as for B1
B3 gave a Kd of 6.17 nM, a koff of 0.00037 s⁻¹ and a kon of 60000 M⁻¹ s⁻¹.

B4: sdAb C7 (VHH)
VHH: EVQLQASGGGLVQPGGSLNLSCAASGEILSFNSMGWYRQAPGKQCELVAVILSGFSPNYADSVKGRFTISRDGAKNTVFLRMNRLKPEDTADYYCAARFYGAIRDEQSVNYWGQGTRVTVSS
notes: as for B1
In the case of B4, the Kd is reported as 1.57 nM, the koff is reported as 0.000248 s⁻¹ and the kon is reported as 158000 M⁻¹ s⁻¹.

B5: sdAb A1 (VHH)
VHH: DVQLQASGGGLVQAGGSLELSCVVVGESIIDYQMAWFRQMVGREREFVAAITGDSHYSDYSASASGRFTISRDNAKKTVSLQMNHLKPEDTALYYCAARKGFGINRLSTAFDYWGHGTQVTVSS
notes: as for B1
B5 showed a Kd of 0.305 nM, a koff of 0.000233 s⁻¹ and a kon of 766000 M⁻¹ s⁻¹.
